For assay [1], the target named is T1, human PD-1 expressed on GS-J2/PD-1 cells (Genscript) (human, UniProt Q15116 25-288). Description: cell-based or functional assay.
For assay [2], the target named is T1, human PD-1 expressed on GS-J2/PD-1 …. Description: flow cytometry on GS-J2/PD-1 cells. How it is done:
In specific, the 293F-mouse PD-1 cells and GS-J2/PD-1 cells were respectively harvested from cell culture flasks, washed twice and re-suspended in PBS containing 2% v/v Fetal Bovine Serum (FACS buffer). Then, 2×10⁵ cells per well were incubated in 96 well-plates with 100 μl of the anti-PD1 antibodies or controls at various concentrations for 40 minutes on ice. […] Following an incubation of 40 minutes at 4° C. in dark, cells were washed three times and re-suspended in FACS buffer. Fluorescence was measured using a Becton Dickinson FACS Canto II-HTS equipment and plotted against antibody concentrations. Data was analyzed using GraphPad Prism software and EC₅₀ values were reported.
For the cell-based binding FACS, R-Phycoerythrin AffiniPure Goat Anti-human IgG Fcγ fragment specific (Cat#:109-115-098, Jackson ImmunoResearch) was used for the humanized antibodies, with 1:1000 dilution in FACS buffer, 100 μl/well.
For orientation: In flow cytometry, cells or beads pass a laser one at a time.

Assay [3] deals with T2, cynomolgus PD-1-his protein (Cat#:PD1-05223, Acro biosystems Inc.) (cynomolgus, UniProt B0LAJ3 25-170).
T2 construct: Bought protein used in Biacore and indirect ELISA; also called monkey PD-1; Cyno PD-1
Briefly: indirect ELISA on coated cynomolgus PD-1-his. For orientation: ELISA stands for enzyme-linked immunosorbent assay.

Assay [4] concerns the target T3, human PD-1-his protein prepared in-house (human, UniProt Q15116 25-167, biotin-labeled (sites not given)).
T3 construct: also called biotin labeled human PD-1-his
Briefly: capture ELISA, antibody captured, biotin human PD-1-his detected. Here is the method:
Briefly, 96-well micro plates were coated with 100 μl 2 μg/ml AffiniPure Goat Anti-Mouse IgG F(ab′)₂ fragment specific (Cat#:115-005-072, Jackson lmmunoResearch) or Goat-anti-human IgG (Cat#:109-005-097, Jackson ImmunoResearch, for the positive control and negative control) in PBS overnight at 4° C. Plates were washed once with wash buffer (PBST, PBS+0.05% Tween-20) and then blocked with 200 μl/well blocking buffer (5% w/v non-fatty milk in PBST) for 2 hours at 37° C. […] After a final wash, plates were incubated with 100 μl/well TMB (Cat#:TMB-S-002, Innoreagents) at room temperature.
For the capture ELISA, 96-well plates were coated with 100 μl 2 μg/ml AffiniPure Goat Anti-Human IgG, Fcγ fragment specific (Cat#:109-005-098, Jackson Immunoresearch) instead of AffiniPure goat-anti-mouse IgG F(ab′)₂ fragment specific.

Assay [5] deals with T4, in house made human PD-1-Fc protein (human, biotin-labeled (sites not given)).
T4 construct: also called biotin-labeled human PD-1-Fc
Briefly: competitive ELISA: biotin human PD-1-Fc + antibody on coated human PD-L1-Fc (competitor). Here is the method:
Briefly, 100 μl human PD-L1-Fc protein (prepared in-house with SEQ ID NO: 28) at 2 μg/mL in carbonate/bicarbonate buffer (pH 9.6) was coated on 96-well micro plates overnight at 4° C., Plates were washed with wash buffer (PBS+0.05% w/v Tween-20, PBST), and blocked with 5% w/v non-fatty milk in PBST for 2 hours at 37° C. […] After incubation at 37° C. for 40 minutes, plates were washed using wash buffer. […] Plates were washed again using wash buffer. Finally, TMB was added and the reaction was stopped using 1M H₂SO₄. The absorbance was read on a microplate reader using dual wavelength mode with 450 nm for TMB and 630 nm as the reference wavelength, then the OD (450-630) values were plotted against antibody concentrations. Data was analyzed using Graphpad Prism software and IC₅₀ values were reported.

The target of assay [6] is T3, human PD-1-his protein prepared in-house. Description: competitive ELISA: biotin human PD-1-his + antibody on coated Pembrolizumab (competitor). How it is done: ELISA plates were washed once with wash buffer (PBST, PBS+0.05% Tween-20) and then blocked with 200 μl/well blocking buffer (5% w/v non-fatty milk in PBST) for 2 hours at 37° C. […] After incubation at 37° C. for 40 minutes, plates were washed using wash buffer, added and incubated with 100 μl/well Peroxidase Streptavidin for 40 minutes at 37° C. Plates were washed again using wash buffer. Finally, TMB was added and the reaction was stopped using 1M H₂SO₄. The absorbance was read on a microplate reader using dual wavelength mode with 450 nm for TMB and 630 nm as the reference wavelength, and the OD (450-630) values were plotted against antibody concentrations. Data was analyzed using Graphpad Prism software and IC₅₀ values were reported.

For assay [7], the target named is T5, human PD-1-his protein (Cat#:PD1-H5221, Acro biosystems Inc.) (human, UniProt Q15116 25-167).
T5 construct: not shown: his tag
Description: BLI (Octet RED96), supernatant antibody captured on AHC sensor, human PD-1-his in solution, 1:1 fit. Here is the method:
Briefly, AHC biosensors (anti-human IgG Fe capture, from ForteBio) were presoaked with 10 mM glycine (pH 1.5) for 3 seconds, and then dipped in a well with running buffer (0.5% w/v BSA in PBST) for 3 seconds, the soaking and dipping steps were repeated for three times. […] A new baseline was run for 100 seconds in another well with running buffer. Then the sensors were dipped in a well with serially diluted human PD-1-his protein (Cat#:PD1-H5221, Acro biosystems Inc., starting at 100 nM with a two-fold serial dilution) in running buffer for 120 seconds, and then immersed in a baseline well for […]. Finally, sensors were presoaked with 10 mM glycine (pH 1.5) for 30 seconds, and then were dipped in a well with running buffer for 30 seconds. The association and dissociation curves were fit to a 1:1 Langmuir binding model using ForteBio Data Analysis 8.1 evaluation software.

Assay [8] addresses T4, in house made human PD-1-Fc protein. Description: blocking FACS: biotin human PD-1-Fc + antibody on GS-C2/PD-L1 cells (competitor: cell-surface human PD-L1). How it is done: GS-C2/PDL1 cells were harvested from cell culture flasks at the log phase, washed twice and re-suspended in PBS containing 2% v/v Fetal Bovine Serum (FACS buffer). GS-C2/PD-L1 cells, 0.6×10⁵ cells per welt, were incubated in 96 well-plates with 100 the antibody/PD1-Fc mixture for 40 minutes at 4° C. Cells were washed twice with FACS buffer, added with 100 R-Phycoerythrin Streptavidin (1:500 dilution in FACS buffer, Cat#:016-110-084, Jackson Immunoresearch), and incubated for 40 minutes at 4° C. in dark. Cells were washed twice and re-suspended in FACS buffer. Fluorescence was measured using a Becton Dickinson FACS Canto II-HTS equipment. Data was analyzed using Graphpad Prism software and IC₅₀ values were reported.

B1: humanized antibody huE1A9C8A7-V5 (antibody, human IgG4 S228P, kappa)
heavy: not shown
light: DIVMTQTPLSLPVTPGEPASISCRSSQSIVHSNGNTYLEWYLQKPGQSPQLLIYKVSNRFSGVPDRFSGSGSGTDFTLKISRVEAEDVGVYYCFQGSHVPYTFGGGTKVEIKRTVAAPSVFIFPPSDEQLKSGTASVVCLLNNFYPREAKVQWKVDNALQSGNSQESVTEQDSKDSTYSLSSTLTLSKADYEKHKVYACEVTHQGLSSPVTKSFNRGEC
notes: Human IgG4/kappa
As usually defined, the EC50 is the concentration giving half of the maximal effect. Usually IC50 stands for the concentration that gives 50% inhibition. As usually defined, the Kd is the equilibrium constant for the complex coming apart. Low readings indicate tighter binding, high ones weaker binding. A word on the koff: it is a measure of how fast the partners let go of each other. The low end stands for a long-lived complex, the high end for a short-lived complex. For orientation: kon means the rate constant with which the complex forms. Higher therefore signals fast association. Turning to B1, the “Cell-based functional assay (EC50, nM)” value in assay [1] stood at 9.3 nM. For the same molecule, the EC50 in assay [2] was determined as 0.66 nM; in assay [3] it was 0.9 nM; in assay [4], 0.21 nM. The results for the IC50 in assay [5], in assay [6] and in assay [8] were 0.35 nM, 0.54 nM and 0.54 nM, respectively. In assay [7], binding was put at a Kd of 1.01 nM. Moreover, the koff in assay [7] stood at 0.000213 s⁻¹. The kon in assay [7] is 211000 M⁻¹ s⁻¹.

B2: humanized antibody huE1A9C8A7-V11 (antibody, human IgG4 S228P, kappa, V domains shown)
VH: QVQLVQSGAEVVKPGASVKISCKASGYTFTDYVMHWVRQAPGQSLEWIGVISTYHIPAVYNQKFKGKATMTRDTSTSTVYLELSSLRSEDTAVYYCAREVYGDSYYFDVWGQGTTVTVSS
VL: DIVMTQTPLSLPVTPGEPASISCRSSQSIVHSNGNTYLEWYLQKPGQSPQLLIYKVSNRFSGVPDRFSGSGSGTDFTLKISRVEAEDVGVYYCFQGSHVPYTFGGGTKVEIKR
notes: Human IgG4/kappa
Take B2: in assay [7], the Kd was found to be 1.53 nM, the dissociation rate constant (koff) is 0.000296 s⁻¹ and the kon came to 194000 M⁻¹ s⁻¹.

B3: humanized antibody huE1A9C8A7-V7 (antibody, human IgG4 S228P, kappa, V domains shown)
VH: QVQLVQSGAEVVKPGASVKISCKASGYTFTDYVMHWVRQAPGQGLEWIGVISTYHIPAVYNQKFKGKATMTVDTSTSTVYLELSSLRSEDTAVYYCAREVYGDSYYFDVWGQGTTVTVSS
VL: DIVMTQTPLSLPVTPGEPASISCRSSQSIVHSNGNTYLEWYLQKPGQSPQLLIYKVSNRFSGVPDRFSGSGSGTDFTLKISRVEAEDVGVYYCFQGSHVPYTFGGGTKVEIKR
notes: Human IgG4/kappa
Regarding B3, in assay [7], the dissociation constant (Kd) was 1.5 nM, the koff amounted to 0.000356 s⁻¹ and the kon came to 237000 M⁻¹ s⁻¹.

B4: humanized antibody huE1A9C8A7-V1 (antibody, human IgG4 S228P, kappa, V domains shown)
VH: QVQLVQSGAEVVKPGASVKISCKASGYTFSDYVMHWMRQAPGQSLEWIGVISTYHIPAVYNQKFKGKATMTVDKSTSTVYLELSSLRSEDTAVYYCAREVYGDSYYFDVWGQGTTVTVSS
VL: DIVMTQTPLSLPVTPGEPASISCRSSQSIVHSNGNTYLEWYLQKPGQSPQLLIYKVSNRFSGVPDRFSGSGSGTDFTLKISRVEAEDVGVYYCFQGSHVPYTFGGGTKVEIKR
notes: Human IgG4/kappa
In assay [7], B4 gave a Kd of 1.54 nM, a koff of 0.000317 s⁻¹ and an on-rate constant (kon) of 206000 M⁻¹ s⁻¹.

B5: humanized antibody huE1A9C8A7-V2 (antibody, human IgG4 S228P, kappa, V domains shown)
VH: QVQLVQSGAEVVKPGASVKISCKASGYTFTDYVMHWMRQAPGQSLEWIGVISTYHIPAVYNQKFKGKATMTVDKSTSTVYLELSSLRSEDTAVYYCAREVYGDSYYFDVWGQGTTVTVSS
VL: DIVMTQTPLSLPVTPGEPASISCRSSQSIVHSNGNTYLEWYLQKPGQSPQLLIYKVSNRFSGVPDRFSGSGSGTDFTLKISRVEAEDVGVYYCFQGSHVPYTFGGGTKVEIKR
notes: Human IgG4/kappa
In assay [7], B5 displayed a Kd of 1.49 nM, a dissociation rate constant (koff) of 0.000294 s⁻¹ and a kon of 197000 M⁻¹ s⁻¹.

B6: humanized antibody huE1A9C8A7-V4 (antibody, human IgG4 S228P, kappa, V domains shown)
VH: QVQLVQSGAEVVKPGASVKISCKASGYTFSDYVMHWMRQAPGQSLEWIGVISTYHIPAVYNQKFKGKATMTVDTSTSTVYLELSSLRSEDTAVYYCAREVYGDSYYFDVWGQGTTVTVSS
VL: DIVMTQTPLSLPVTPGEPASISCRSSQSIVHSNGNTYLEWYLQKPGQSPQLLIYKVSNRFSGVPDRFSGSGSGTDFTLKISRVEAEDVGVYYCFQGSHVPYTFGGGTKVEIKR
notes: Human IgG4/kappa
On to B6, for which, in assay [7], the affinity, expressed as Kd, was 1.49 nM; the koff was 0.00027 s⁻¹; the association rate constant (kon) amounted to 182000 M⁻¹ s⁻¹.

B7: humanized antibody huE1A9C8A7-V6 (antibody, human IgG4 S228P, kappa)
heavy: not shown
light: DIVMTQTPLSLPVTPGEPASISCRSSQSIVHSNGNTYLEWYLQKPGQSPQLLIYKVSNRFSGVPDRFSGSGSGTDFTLKISRVEAEDVGVYYCFQGSHVPYTFGGGTKVEIKRTVAAPSVFIFPPSDEQLKSGTASVVCLLNNFYPREAKVQWKVDNALQSGNSQESVTEQDSKDSTYSLSSTLTLSKADYEKHKVYACEVTHQGLSSPVTKSFNRGEC
notes: Human IgG4/kappa
For the molecule B7, in assay [7], binding was put at a Kd of 1.84 nM, the koff came out at 0.000428 s⁻¹ and the kon was found to be 233000 M⁻¹ s⁻¹.

B8: humanized antibody huE1A9C8A7-V9 (antibody, human IgG4 S228P, kappa, V domains shown)
VH: QVQLVQSGAEVVKPGASVKISCKASGYTFTDYVMHWVRQAPGQSLEWIGVISTYHIPAVYNQKFKGRATMTVDTSTSTVYLELSSLRSEDTAVYYCAREVYGDSYYFDVWGQGTTVTVSS
VL: DIVMTQTPLSLPVTPGEPASISCRSSQSIVHSNGNTYLEWYLQKPGQSPQLLIYKVSNRFSGVPDRFSGSGSGTDFTLKISRVEAEDVGVYYCFQGSHVPYTFGGGTKVEIKR
notes: Human IgG4/kappa
On to B8, for which, in assay [7], the Kd was found to be 1.63 nM, the koff was found to be 0.000413 s⁻¹ and the kon was 253000 M⁻¹ s⁻¹.

B9: humanized antibody huE1A9C8A7-V10 (antibody, human IgG4 S228P, kappa, V domains shown)
VH: QVQLVQSGAEVVKPGASVKISCKASGYTFTDYVMHWVRQAPGQSLEWIGVISTYHIPAVYNQKFKGKVTMTVDTSTSTVYLELSSLRSEDTAVYYCAREVYGDSYYFDVWGQGTTVTVSS
VL: DIVMTQTPLSLPVTPGEPASISCRSSQSIVHSNGNTYLEWYLQKPGQSPQLLIYKVSNRFSGVPDRFSGSGSGTDFTLKISRVEAEDVGVYYCFQGSHVPYTFGGGTKVEIKR
notes: Human IgG4/kappa
In assay [7], B9 gave a dissociation constant Kd of 1.59 nM, a koff of 0.000385 s⁻¹ and a kon of 242000 M⁻¹ s⁻¹.

These data come from patent publication US20230331848A1 (BIOSION, published 2023).
